According to publication PMC7887190:

Target: YB1 (UniProt P67809)
Assay: reciprocal co-IP (anti-YB1, anti-WAVE3), blot

Row | Substance | binding against the reference (reference: wild-type WAVE3 (W3-WT), sites Y151,Y248,Y337,Y486) | binding against the reference (reference: PRD-WT (GFP fusion), sites Y248,Y337)
1 | WAVE3 (from UniProt Q9UPY6) W3-Y4F | lost | 
2 | WAVE3 proline-rich domain (PRD) (from UniProt Q9UPY6) PRD-DM (Y248F/Y337F) |  | weaker
